In PMC4396682:

Key:
[1] = molecular target: SpoVM (synthesized 26-amino-acid peptide), adsorbed on spherical supported lipid bilayers (Bacillus subtilis); assay: fluorescence microscopy of retention on bead-supported lipid bilayers after competition; 0.006 uM SpoIVA^AF488 adsorbed on SpoVM-SSLBs with 4 mM ATP in buffer A with 10 mM MgCl2; then 5 uM (800-fold excess) unlabelled SpoIVA; followed over time to 72 h
[2] = molecular target: SpoVM (synthesized 26-amino-acid peptide), adsorbed on spherical supported lipid bilayers (Bacillus subtilis); assay: fluorescence microscopy of retention on bead-supported lipid bilayers after competition; 0.006 uM SpoIVA^AF488 adsorbed on SpoVM-SSLBs without ATP in buffer A with 10 mM MgCl2; then 5 uM (800-fold excess) unlabelled SpoIVA; followed over time to 72 h

SpoVM (synthesized 26-amino-acid peptide), adsorbed on spherical supported lipid bilayers (Bacillus subtilis), sequence (P37817 whole entry): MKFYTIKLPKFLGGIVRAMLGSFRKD

percent of the initial SpoIVA^AF488 still adsorbed after 72 h of competition with unlabelled SpoIVA, with ATP [1]: 81% | percent of the initial SpoIVA^AF488 still adsorbed after 4 h of competition with unlabelled SpoIVA, without ATP [2]: 72% | percent of the initial SpoIVA^AF488 still adsorbed after 72 h of competition with unlabelled SpoIVA, without ATP [2]: 26%
Substance: SpoIVA^AF488 (His6-tagged cysteine-less SpoIVA variant C98S with a single engineered cysteine at the N terminus, labelled with AlexaFluor 488) (from UniProt P35149 1-492) (natural protein)
